{
  "source": "paper PMC10004559",
  "about": "“Identification of residues involved in allosteric signal transmission from amino acid binding site of pyruvate kinase muscle isoform 2” (PLOS ONE, 2023)",
  "system": "C=C(OP(=O)(O)O)C(=O)O",
  "assay": "purified protein, by the assay type",
  "conditions": "ADP 0.8 mM, pH 7.5",
  "data": [
    {"substance": "PKM2 N75L (Homo sapiens; N75L)", "values": [
      {"measurement": "Km", "setting": "other: 4200 nM PKM2 N75L, no AA", "value": 80, "unit": "µM"}
    ]},
    {"substance": "PKM2 N70D (Homo sapiens; N70D)", "values": [
      {"measurement": "Km", "setting": "other: 65 nM PKM2 N70D, no AA", "value": "780 ± 160", "unit": "µM"},
      {"measurement": "kcat/Km", "setting": "other: 65 nM PKM2 N70D, no AA", "value": "5.9±1.3 ×10^3 mM^-1 min^-1"}
    ]},
    {"substance": "wtPKM2 (Homo sapiens)", "values": [
      {"measurement": "Km", "setting": "other: 10 nM wtPKM2, no AA", "value": 700, "unit": "µM"}
    ]},
    {"substance": "PKM2 R106A (Homo sapiens; R106A)", "values": [
      {"measurement": "Km", "setting": "other: 50 nM PKM2 R106A, no AA", "value": "510 ± 40", "unit": "µM"},
      {"measurement": "kcat/Km", "setting": "other: 50 nM PKM2 R106A, no AA", "value": "9.6±0.8 ×10^3 mM^-1 min^-1"}
    ]}
  ]
}
